Experimental data published in US20170166631A1.

T1: HD21 (huntingtin exon 1 protein with 21 polyQ repeats after cleavage of the GST tag; aggregation reaction) (human), P42858
T1 chain: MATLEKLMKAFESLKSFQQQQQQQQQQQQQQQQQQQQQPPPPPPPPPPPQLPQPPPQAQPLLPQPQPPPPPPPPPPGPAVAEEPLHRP


Columns and labels:
[1] = biological target: all four species (aggregated HD49, aggregated HD21, soluble GST-HD49 and GST-HD21); experiment: direct ELISA, antigen coated at 5 ug/ml
[2] = biological target: T1, HD21 (huntingtin exon 1 protein with 21 …); experiment: ELISA; conditions: chains VH:VL; remark: other sources report otherwise

Binder	EC50 [1]	EC50 [2]
NI-302.15F9 (antibody, human IgG1, V domains shown) VH: EVQLVESGGGLVTPGGSLRLSCEASGFLFKNSSMNWVRQTPGKGLEWVSSIDTSATNYKYYADSVKGRFTISRDDATNSLYLQMNSLRADDTATYYCARGYYTPRDFDYWGQGTLVTVSS VL: DVVMTQSPQTLSVSLGQAASISCRSSQSLLYRDNNTYLNWFHQRPGQSPRRLIYRASDRDSGVPDRFSGGGSGTDFTLKISGVEAEDVGTYYCMQGTHWPRTFGQGTKVEIK	5 to 35 nM	
NI-302.12H2 (protein) chain 1: EVQLVQSGGGLVQPGGSLRLSCEASGFTFSNYAMGWVRQAPGKGLEWVSVISGTGGSTYYADSVKGRFTISRDNSMNTLYLQMNSPRADDTAVYYCAKDLRKISGPLYYYGMDVWGQGTTVTVSS chain 2: EIVLTQSPGTLSLSPGERATLSCRASQSVSSGYLAWYQQKPGQAPRLLIYGASTRATGIPDRFSGSGSGTDFTLTISRLEPEDFAVYYCQHYGASSYTFGQGTKLEIK		0.05 nM
NI-302.8M1 (protein) chain 1: EVQLVQSGAEVKKPGASVKVSCKASGYTFTIYYMHWVRQAPGQGLEWMGGISPSGAHTMYAQNFQGRVTVTRDTSTSTVYMELSSLRSEDTAVYYCARGSTVTNYRPFDYWGQGTLVTVSS chain 2: DIQMTQSPSSLSASVGDRVTITCRASQDISNYLAWYQQKPGKVPKLLIFAASTLQSGVPSRFGGSGSGTDFTLTISSLQPEDVATYYCQNYNSGPPPFGPGTKVDIK		0.002 nM
NI-302.4A6 (protein) chain 1: EVQLVESGGGLVQPGGSLRLSCAASGFTFSAYAMSWVRQAPGKGLEWVSTISGSGGSTYYADSVKGRFSISRDNSKNTLYLQMNSLRAEDTAVYFCAKVTTELYGANSYYYYMDVWGKGTTVTVSS chain 2: EIVLTQSPGTLSLSPGERATLSCRASQSVVSRYLAWYQQKPGQAPRLLIYGASSRATGIPDRFSGSGSGTDFTLTISRLEPEDFAMYYCQLYGNSQTFGQGTKVEIK		3 nM
